Data taken from publication PMC10711550, “Molecular basis for SOX2-dependent regulation of super-enhancer activity” (Nucleic Acids Research, 2023).
Each block holds one binder with its values, some of them ahead of it.

How the values were obtained:
Details in all cases: both partners purified
[1] = biological target: T1, full-length human SOX2 (recombinant, N-terminal His-tag, 327 amino acids) (human, UniProt P48431 1-317); test: BLI; 0.2 mg/ml SOX2 immobilised on an AR2G chip, quenched with 1 M ethanolamine; p300 (0-400 nM), KIX (0-43 uM), fragments (3 uM KIX and BR, 0.8 uM KB) in PBS; global fit, 1:1 binding model; BLItz
T1 construct: human SOX2, full length, 317 amino acids; with the tag peptide 327 amino acids; Immobilised on an AR2G chip in BLI

[2] = biological target: T2, full-length human SOX2 (human, UniProt P48431 1-317); test: BLI; SOX2 (0.2 mg/ml) immobilised on an AR2G chip, quenched with 1 M ethanolamine; p300 fragments in PBS; global fit to a 1:1 binding model (BLItz Pro v.1.2.1.5)
T2 construct: human SOX2, UniProt P48431, 317 amino acids; with the N-terminal His-tag peptide the recombinant protein has 327 amino acids; cloned into the pVFT1S plasmid

[3] = biological target: T3, C-terminal domain of SOX2 (aa 150-317) (human, UniProt P48431 150-317); test: BLI; SOX2DBD or SOX2CTD with KIX or bromodomain; who was immobilised not given; global fit to a 1:1 binding model (BLItz Pro v.1.2.1.5)
T3 construct: also called SOX2CTD; CTDSOX2; source: E. coli BL21(DE3), purified from the supernatant (HisTrap HP, Superose 6 Increase)

[4] = biological target: T4, DNA-binding domain of SOX2 (aa 39-127) (human, UniProt P48431 39-127); test: as above
T4 construct: also called SOX2DBD; DBDSOX2; source: E. coli BL21(DE3), purified from the supernatant (HisTrap HP, Superose 6 Increase)
T4 sequence (P48431 39-127): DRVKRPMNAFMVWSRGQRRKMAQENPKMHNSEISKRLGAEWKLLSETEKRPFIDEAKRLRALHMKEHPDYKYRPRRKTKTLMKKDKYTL

T1 sequence (P48431 whole entry, the tested form may be a part): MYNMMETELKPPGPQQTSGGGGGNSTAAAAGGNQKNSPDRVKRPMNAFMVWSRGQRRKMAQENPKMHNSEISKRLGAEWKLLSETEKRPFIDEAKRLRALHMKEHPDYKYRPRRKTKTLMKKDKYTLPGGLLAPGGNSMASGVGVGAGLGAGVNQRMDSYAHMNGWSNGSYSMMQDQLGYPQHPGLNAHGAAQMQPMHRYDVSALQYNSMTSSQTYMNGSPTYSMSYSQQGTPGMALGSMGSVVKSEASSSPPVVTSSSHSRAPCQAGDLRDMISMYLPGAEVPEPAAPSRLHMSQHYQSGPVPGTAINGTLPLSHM
T2 sequence (P48431 whole entry, the tested form may be a part): as above
T3 sequence (P48431 150-317): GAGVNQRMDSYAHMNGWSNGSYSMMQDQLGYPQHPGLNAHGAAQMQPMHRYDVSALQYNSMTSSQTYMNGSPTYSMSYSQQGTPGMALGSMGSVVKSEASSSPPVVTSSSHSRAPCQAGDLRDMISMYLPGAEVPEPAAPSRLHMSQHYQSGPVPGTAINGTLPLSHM

B1: p300 bromodomain (aa 1067-1139) (domain or fragment, human, UniProt Q09472 1067-1139, looked up)
chain: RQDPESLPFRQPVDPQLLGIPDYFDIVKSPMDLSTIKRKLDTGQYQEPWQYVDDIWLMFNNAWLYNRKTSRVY
notes: human p300, bromodomain, residues 1067-1139; also called p300BD; BD; source: E. coli BL21(DE3), purified from the supernatant (HisTrap HP, Superose 6 Increase)
fold higher KD than p300KIX [1]: 20.1 fold

B2: p300 bromodomain (aa 1067-1139) (domain or fragment, human, UniProt Q09472 1067-1139, looked up)
chain: B1 chain
notes: human p300, UniProt Q09472, bromodomain, aa 1067-1139; also called BD; p300BD; source: E. coli BL21(DE3), purified from the supernatant (HisTrap HP, Superose 6 Increase)
Kd [2]: 54 µM
koff [2]: 0.00606 s⁻¹
kon [2]: 112 M⁻¹ s⁻¹
koff [3]: 0.0951 s⁻¹
koff [4]: 0.0265 s⁻¹
kon [4]: 172 M⁻¹ s⁻¹

koff [3]: 0.0849 s⁻¹
kon [3]: 1720 M⁻¹ s⁻¹
koff [4]: 0.0469 s⁻¹
kon [4]: 5060 M⁻¹ s⁻¹
B3: p300 KIX domain (aa 566-646) (domain or fragment)
chain: not shown
notes: human p300, UniProt Q09472, KIX domain, aa 566-646; also called KIXp300; source: E. coli BL21(DE3), purified from the supernatant (HisTrap HP, Superose 6 Increase)

fold lower KD than p300BD [1]: 834 fold
fold lower KD than p300KIX [1]: 41.4 fold
B4: p300 KIX-BD fragment (aa 566-1139) (domain or fragment)
chain: not shown
notes: human p300, KIX + bromodomain, residues 566-1139; also called p300KB; KB; source: E. coli BL21(DE3), purified from the supernatant (HisTrap HP, Superose 6 Increase)
